Source: the MegaScale stability set (Tsuboyama et al. 2023)

B1: 2M8U (parent)
chain: TKAQVIEAFKVFDRDGNGYVTVDYLRKVLNELGDMMPADEIEEMIYEADPQNSGYVQYETFVGMLFL
B2: EHEE_rd2_0196 (parent)
chain: TETRTFDSEEEAKKAQKEAEKQGRTVTITRRDDRWEVRFD

Variants of: B1
Experiment: folding stability dG (cDNA display proteolysis); higher = more stable
Conditions: PBS, room temperature

Folding stability dG [kcal/mol]: each site, then its substitutions
F12: N 3.06; G 3.5; L 3.08; V 3.03
I6: G 2.34
L32: Q 2.62; C 2.76; M 3.21; N 2.53; R 2.6
P37: L 3.45; W 3.79
P50: F 3.05; Y 3.06; M 3.05
L29: E 1.12; Q 1.4; P 1.19; D 0.756; S 2.06; F 3.2
E42: H 3.01; N 3.49; F 3.06; I 3.25; S 3.29
G18: N 2.23; W 2.68; Y 2.36; V 2.61; D 2.28; I 2.57; F 2.65
R14: N 3.34; V 3.83; L 3.75; A 3.65; H 3.68; P 3.5; K 3.55
D13: V 2.3; W 2.7
Y55: H 3.22; E 3.05; N 3.16
V5: C 3.17
I41: V 3.4; M 3.57
E59: H 3.24; K 3.23; L 3.47; C 3.25; Y 3.82; D 2.99
K2: N 2.56; F 2.94; H 3.11; S 2.98

Variants of: B2
Experiment: as above
Conditions: PBS, room temperature

Folding stability dG [kcal/mol] of substitutions, site by site:
W35: A 0.417; H 0.529; G 0.36; P 0.441; D 0.578; S 0.473; E 0.481; N 0.396; M 0.562; V 0.758; L 0.862; T 0.4; R 0.21; F 2.18; Q 0.348; I 1.2; K 0.058; Y 2.08
R38: M 2.74; V 3.02; N 2.73; W 2.17; Q 2.85; E 2.68; K 2.96; H 3.04; L 2.69; P 0.679; F 2.33; A 2.8; S 3; I 3.05; T 3.15; Y 2.24; D 2.18; G 2.1
F39: T 2.48; H 1.93; G 1.87; W 2.94; P 2.06; Y 3.15; I 3.35; C 2.14; M 2.96; V 2.93; K 1.29; E 2.52; N 1.81; L 2.74; Q 2.02; R 1.35; A 2.34; S 2.46; D 2.51
D40: G 2.95; A 2.97; P 2.3; M 3.01; Y 2.8; V 3.21; H 2.98; F 2.85; E 3.28; L 3.05; W 2.89; K 2.3; Q 2.92; R 2.42; I 3.13; T 3.15; N 2.88; S 3.13
E36: S 1.19; Q 1.95; V 2.89; D 2.06; L 2.46; W 1.94; Y 2.57; A 1.32; F 2.5; G 0.645; R 1.08; T 1.74; N 1.15; M 2.06; K 0.851; I 2.99; H 2.08
V37: E 0.37; C 1.8; T 1.31; W -0.006; M 2.17; I 2.65; R -0.375; D 0.415; P 0.552; L 2.83; Q 0.384; A 1.89; S 0.483; N 0.539; Y 0.443; H 0.212; K 0.375; F 1.02; G 1.09
